Measured values published in patent US20250197451A1 (CAPITAL MEDICAL UNIVERSITY SCHOOL OF STOMATOLOGY, published 2025).

target: T1, biotin-labelled EZH2 protein (UniProt Q15910 1-746, limits assumed, biotin label (EZ-link NHS-PEO4-Biotinylation kit)); assay: KDM2B peptide array probed with biotin-EZH2 1 ug/ml, SA-HRP/ECL;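 also: Background-corrected optical density of each spot on the membrane, given as percent of the brightest spot (100%), color developed for 5 minutes; 100% is the highest background-corrected spot optical density on the membrane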
T1 construct: Probe in solution (1 ug/ml) on the KDM2B peptide microarray; also called NHS-PEO4-Biotinylation-labelled EZH2 protein; recombinant protein
T1 sequence (Q15910 whole entry): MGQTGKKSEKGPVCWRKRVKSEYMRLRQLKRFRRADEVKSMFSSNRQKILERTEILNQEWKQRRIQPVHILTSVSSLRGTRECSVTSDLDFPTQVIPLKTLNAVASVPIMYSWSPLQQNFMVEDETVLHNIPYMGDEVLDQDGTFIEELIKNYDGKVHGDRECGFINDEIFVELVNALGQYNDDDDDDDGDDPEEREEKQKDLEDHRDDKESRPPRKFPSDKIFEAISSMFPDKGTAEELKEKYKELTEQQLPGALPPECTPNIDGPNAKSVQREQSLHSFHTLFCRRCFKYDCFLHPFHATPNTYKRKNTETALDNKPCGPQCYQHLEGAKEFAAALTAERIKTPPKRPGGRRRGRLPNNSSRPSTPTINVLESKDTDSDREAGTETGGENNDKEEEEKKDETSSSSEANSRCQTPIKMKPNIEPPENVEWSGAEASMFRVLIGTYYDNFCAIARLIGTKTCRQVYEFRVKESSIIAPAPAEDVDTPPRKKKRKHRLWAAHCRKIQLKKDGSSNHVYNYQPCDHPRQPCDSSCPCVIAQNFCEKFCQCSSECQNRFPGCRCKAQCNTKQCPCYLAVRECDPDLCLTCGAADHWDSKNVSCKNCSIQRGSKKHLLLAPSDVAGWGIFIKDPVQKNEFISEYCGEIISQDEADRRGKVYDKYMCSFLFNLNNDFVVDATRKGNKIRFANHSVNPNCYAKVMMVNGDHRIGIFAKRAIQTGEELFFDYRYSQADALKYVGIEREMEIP

First: EVSAKWTHLTEFELK [peptide 101]
Second: KLAANRTTAGARRRR [peptide 120]
The “Intensity (%)” value of the first is higher: 2.69% for the first, 0% for the second.

EGVKNVLKEHADDDP [peptide 110] and YFQQQLKPGKEDKLF [peptide 171] are the same in “Intensity (%)” value: 0% for the first, 0% for the second.

EEEGKFNLMLMECSI [peptide 136] and LSPWWRSSLTYFQQQ [peptide 169] are the same in “Intensity (%)” value: 0% for the first, 0% for the second.

Going from GLKALVEKLESLPEN [peptide 104] to AVGRPKGKLGPASAV [peptide 117], the “Intensity (%)” value falls from 8.01% to 0%.

First: VEKLESLPENKKCVP [peptide 105]
Second: VCLVCGEAGKEDTVE [peptide 133]
The “Intensity (%)” value of the first is higher: 20.3% for the first, 12% for the second.

Compared with SLPENKKCVPEGIED [peptide 106], GEAGKEDTVEEEEGK [peptide 134] is lower in “Intensity (%)” value: 3.77% for the first, 0% for the second.

First: ECHFCKDMKKFGGPG [peptide 126]
Second: GSSSHLSPRPPLGSS [peptide 166]
The “Intensity (%)” value of the first is higher: 6.05% for the first, 0.84% for the second.

Going from WTHLTEFELKGLKAL [peptide 102] to CNEIIHPGCLKIKES [peptide 139], the “Intensity (%)” value rises from 0% to 85.1%.

KKCVPEGIEDPQALL [peptide 107] and LKPGKEDKLFRKKRR [peptide 172] are the same in “Intensity (%)” value: 0% for the first, 0% for the second.

DRQRYDENEDLSDVE [peptide 10] and KGKLGPASAVKLAAN [peptide 118] are the same in “Intensity (%)” value: 0% for the first, 0% for the second.

Going from DNKEGQEPAKRRSEC [peptide 152] to LSDVEEIVSVRGFSL [peptide 12], the “Intensity (%)” value falls from 97.8% to 0.13%.

Compared with ADDDPSLAITGVPVV [peptide 112], RKKRRSWKNAEDRMA [peptide 174] is higher in “Intensity (%)” value: 0% for the first, 0.47% for the second.

Going from QEPAKRRSECEEAPR [peptide 153] to TPKNRAVGRPKGKLG [peptide 116], the “Intensity (%)” value falls from 41.6% to 0%.

Going from RSSLTYFQQQLKPGK [peptide 170] to ARRRRTRCRKCEACL [peptide 122], the “Intensity (%)” value rises from 2.26% to 100%.

First: LRRKSDDVHLRKKRK [peptide 159]
Second: TRCRKCEACLRTECG [peptide 123]
The “Intensity (%)” value of the first is lower: 0% for the first, 97.3% for the second.

GFKYASNLPGSLLKE [peptide 148] and RRSDEHSKKVPPDGL [peptide 156] are the same in “Intensity (%)” value: 0% for the first, 0% for the second.

PQALLEGVKNVLKEH [peptide 109] and EGIEDPQALLEGVKN [peptide 108] are the same in “Intensity (%)” value: 0% for the first, 0% for the second.

Compared with VLKEHADDDPSLAIT [peptide 111], QKRGPGFKYASNLPG [peptide 147] is lower in “Intensity (%)” value: 0.99% for the first, 0% for the second.

Going from FNLMLMECSICNEII [peptide 137] to EEKLRSQLYQGDFVH [peptide 15], the “Intensity (%)” value falls from 0.24% to 0%.

Compared with SLAITGVPVVTWPKK [peptide 113], RKKRKYEKPQELSGR [peptide 161] is lower in “Intensity (%)” value: 1.55% for the first, 0% for the second.

First: GDFVHAMEGKDFNYE [peptide 17]
Second: SQLYQGDFVHAMEGK [peptide 16]
The “Intensity (%)” value of the first is lower: 0% for the first, 1.87% for the second.

First: YEKPQELSGRKRASS [peptide 162]
Second: EFELKGLKALVEKLE [peptide 103]
The “Intensity (%)” value of the first is lower: 0% for the first, 4.44% for the second.

Compared with DELPNCWECPKCNHA [peptide 143], MAGPQMGGSAEDHPP [peptide 1] is higher in “Intensity (%)” value: 0% for the first, 0.25% for the second.

First: DENEDLSDVEEIVSV [peptide 11]
Second: HSKKVPPDGLLRRKS [peptide 157]
The “Intensity (%)” value of the first is lower: 0% for the first, 18.4% for the second.

Compared with GVPVVTWPKKTPKNR [peptide 114], KIKESEGVVNDELPN [peptide 141] is higher in “Intensity (%)” value: 0% for the first, 10.8% for the second.

Going from EDKLFRKKRRSWKNA [peptide 173] to LPHTAVCLVCGEAGK [peptide 132], the “Intensity (%)” value rises from 0% to 100%.

Going from RTTAGARRRRTRCRK [peptide 121] to SWKNAEDRMALANKP [peptide 175], the “Intensity (%)” value falls from 1.31% to 0%.

First: FGGPGRMKQSCIMRQ [peptide 128]
Second: CIAPVLPHTAVCLVC [peptide 131]
The “Intensity (%)” value of the first is lower: 0% for the first, 100% for the second.

Compared with QKMNRDNKEGQEPAK [peptide 151], LSPRPPLGSSLSPWW [peptide 167] is lower in “Intensity (%)” value: 100% for the first, 0% for the second.

HPGCLKIKESEGVVN [peptide 140] and EDRMALANKPLRRFK [peptide 176] are the same in “Intensity (%)” value: 0% for the first, 0% for the second.

Compared with MECSICNEIIHPGCL [peptide 138], RMKQSCIMRQCIAPV [peptide 129] is lower in “Intensity (%)” value: 26.8% for the first, 9.37% for the second.

Going from TWPKKTPKNRAVGRP [peptide 115] to EGVVNDELPNCWECP [peptide 142], the “Intensity (%)” value rises from 0% to 100%.

GSPATEVSAKWTHLT [peptide 100] and PPDGLLRRKSDDVHL [peptide 158] are the same in “Intensity (%)” value: 0% for the first, 0% for the second.

Going from PASAVKLAANRTTAG [peptide 119] to RTECGECHFCKDMKK [peptide 125], the “Intensity (%)” value rises from 0% to 1.57%.

PLGSSLSPWWRSSLT [peptide 168] and CEACLRTECGECHFC [peptide 124] are the same in “Intensity (%)” value: 0% for the first, 0% for the second.

CWECPKCNHAGKTGK [peptide 144] was tested, and the “Intensity (%)” value was 0%.
